# In publication PMC3608519 (Journal of immunology (Baltimore, Md. : 1950), 2013):
# Molecular target: RSV fusion (F) protein ectodomain (Human respiratory syncytial virus; …, UniProt P03420)
# Assay: SPR
# RSV fusion (F) protein ectodomain, sequence (P03420 26-524): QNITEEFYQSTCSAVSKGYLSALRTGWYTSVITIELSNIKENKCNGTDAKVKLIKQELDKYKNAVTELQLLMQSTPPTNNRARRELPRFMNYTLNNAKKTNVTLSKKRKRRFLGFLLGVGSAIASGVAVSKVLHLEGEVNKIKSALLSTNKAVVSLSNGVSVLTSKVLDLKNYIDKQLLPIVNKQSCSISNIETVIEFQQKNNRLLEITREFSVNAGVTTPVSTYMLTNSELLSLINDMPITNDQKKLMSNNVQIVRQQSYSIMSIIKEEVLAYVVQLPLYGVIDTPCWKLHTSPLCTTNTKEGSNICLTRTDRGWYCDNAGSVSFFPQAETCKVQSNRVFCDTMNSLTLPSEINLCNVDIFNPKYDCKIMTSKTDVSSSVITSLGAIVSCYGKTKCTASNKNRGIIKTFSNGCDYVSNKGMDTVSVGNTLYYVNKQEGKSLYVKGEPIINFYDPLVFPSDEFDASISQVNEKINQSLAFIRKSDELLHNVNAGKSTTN
binder,measurement,value
"Fab19 (fully matured, wild-type) (Fab, V domains shown) VH: VQLLEVESGGGLRPGGSLRLSCAASGTTLSGYTMHWVRQAPGKGLEWVSSITGGSNFINYSDSVKGRFTISRDNAKNSLYLQMNSLTAEDTAVYYCATAPIAPPYFDHWGQGTLVTVSS VL: ELTQSPSSLSASVGDRVTITCRATQSVSNFLNWYQQKPGEAPTLLIYDASTSQSGVPSRFSGSGSGMDFSLTISSLQPEDLAMYYCQASINTPLFGGGTRIDMR",koff,0.0057 s⁻¹
